Target: hamster integrin αv subunit, endogenous in CHO cells (Chinese hamster (endogenous in CHO))
Assay: flow cytometry on cells; CHO cells transiently transfected with the β3 plasmid alone, harvested after 48 h; the chimeric complex of human β3 and hamster αv on the cell surface was stained with FITC anti-αvβ3 (LM609; Figure 2C) or with the monoclonal antibody to β3 (Figure 2D); read-out is the percentage of positive cells

## integrin β3 subunit with the Pro189Ser substitution (P163S in the mature protein) (from UniProt P05106 27-788) (receptor)
  percent of the level of the WTβ3-hamster αv complex (LM609 staining): 78%

Source: PMC3827234
